These results are taken from paper PMC12120875.

The target of this experiment is VqERF1B-mCherry (Vitis quinquangularis accession 'Danfeng-2'). Nature of the experiment: FRET or BRET. For orientation: In BRET a luciferase serves as donor, and the signal depends on an acceptor being close.

For VqERF062-GFP (natural protein), the FRET efficiency was found to be 32%.
